One may read the stoichiometry N as the number of molecules, sites or subunits per partner or assembly.

Experimental findings from publication PMC6800368, “Rotational symmetry of the structured Chip/LDB-SSDP core module of the Wnt enhanceosome” (Proceedings of the National Academy of Sciences of the …, 2019) are described below.

Changes are numbered by the printed parent chain. In names and notes the source's numbering stands. Several values for one entry are separate records, joined by “and”; a condition that tells them apart may be missing. Identical values can stand only once.

Series [1] addresses Lip-SSDP_(1–92) Mα3 (F66E L69A Y70A) (Drosophila) (UniProt Q9VEB9). As to the kind of experiment: SEC-MALS; MBP-LCCD_(Chip) (WT or Mα6) coexpressed with Lip-SSDP_(1–92) (WT, V65K, Mα3 or ML), purified; Superdex-200 10/300, 2 mg/mL, PBS, 1 mM DTT; PAGE of SEC fractions. In general terms: In gel filtration, larger molecules generally elute earlier.
Series [2] concerns the molecule itself. Put plainly: crystal structure; SSDP_(1–86), tags removed; vapor diffusion at 19 °C; 2.4 Å.
Series [3] concerns the molecule itself. Put plainly: crystal structure; DD (XLdb1 20-200) bound to a DARPin; 2.0 to 2.59 Å depending on the DARPin.
Series [4] deals with the molecule itself. As to the kind of experiment: SEC-MALS; Lip-SSDP_(1–92) WT and mutants alone; Superdex-200 10/300, loaded at 2 mg/mL, PBS, 1 mM DTT; self-association of SSDP dimers into tetramers.
The target of the next series is T1, MBP-LCCD_(Chip) (Drosophila, UniProt Q7KVG9-2 384-436).
T1 construct: Drosophila Chip, LCCD, residues 384-436; also called Chip-LCCD (residues 384 to 436); source: E. coli BL21(DE3)-RIL, bicistronic coexpression with Lip-SSDP_(1–92), purified (Ni-NTA, gel filtration)
T1 sequence (looked up): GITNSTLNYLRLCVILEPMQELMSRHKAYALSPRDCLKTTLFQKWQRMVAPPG
As to the kind of experiment: SEC-MALS; MBP-LCCD_(Chip) (WT or Mα6) coexpressed with Lip-SSDP_(1–92) (WT, V65K, Mα3 or ML), purified; Superdex-200 10/300, 2 mg/mL, PBS, 1 mM DTT; PAGE of SEC fractions. Particulars: both partners purified.

Series [5] concerns the molecule itself. The description is as above.

In series [1], “Lip-SSDP_(1–92) Mα3 (F66E L69A Y70A) (from UniProt Q9VEB9 1-92) (domain or fragment)” came in with a stoichiometry N of 2.

B1: SSDP_(1–86) (domain or fragment, Drosophila, UniProt Q9VEB9 1-86, looked up)
chain: MYGKSKTSAVPSDAQAREKLALYVYEYLLHVGAQKAAQTFLSEIRWEKNITLGEPPGFLHTWWCVFWDLYCAAPERRDQCDHSSEA
notes: also called SSDP-N; N-terminal dimerization domain of SSDP; source: E. coli BL21(DE3)-RIL, purified (Ni-NTA, gel filtration)
B1: in series [2], the binding result was “binds”.

B2: DD (XLdb1 20-200) (domain or fragment, Xenopus laevis, UniProt P70060 20-200, looked up)
chain: GIGRHTPYGNQTDYRIFELNKRLQNWTEECDNLWWDAFTTEFFEDDAMLTITFCLEDGPKRYTIGRTLIPRYFRSIFEGGATELYYVLKHPKESFHNNFVSLDCDQCTMVTQHGKPMFTQVCVEGRLYLEFMFDDMMRIKTWHFSIRQHRELIPRSILAMHAQDPQMLDQLSKNITRCGLS
notes: Xenopus laevis Ldb1 (XLdb1), dimerization domain, residues 20-200; also called dimerization domain of XLdb1; source: E. coli BL21(DE3)-RIL, purified (Ni-NTA, gel filtration)
In the case of B2, the binding result in series [3] is reported as “binds”.

B3: Lip-SSDP_(1–92) (domain or fragment, Drosophila, UniProt Q9VEB9 1-92, looked up)
chain: MYGKSKTSAVPSDAQAREKLALYVYEYLLHVGAQKAAQTFLSEIRWEKNITLGEPPGFLHTWWCVFWDLYCAAPERRDQCDHSSEAKAFHDY
notes: Drosophila SSDP, residues 1-92; Obligate dimer; dimers and tetramers are seen by SEC-MALS; also called SSDP-N; WT Lip-SSDP_(1–92); source: E. coli BL21(DE3)-RIL, purified (Ni-NTA, gel filtration); alone or coexpressed with MBP-LCCD from a bicistronic vector
Turning to B3, the “stoichiometry N” value was 2 and 4 in series [4]; ~2 SSDP chains per LCCD (4:2, from the printed formula) and ~2 SSDP chains per LCCD in the series with MBP-LCCD_(Chip).

B4: Lip-SSDP_(1–92) ML (I50E L52E) (domain or fragment, Drosophila, UniProt Q9VEB9 1-92, looked up)
chain: B3 chain with I50E, L52E
notes: Drosophila SSDP, residues 1-92; also called SSDP ML; source: E. coli BL21(DE3)-RIL, purified (Ni-NTA, gel filtration); alone or coexpressed with MBP-LCCD
On to B4, for which, in series [4], the binding result is “binds”. In the series with MBP-LCCD_(Chip), the “stoichiometry N” value was 2 SSDP chains per LCCD.

B5: Lip-SSDP_(1–92) V65K (domain or fragment, Drosophila, UniProt Q9VEB9 1-92, looked up)
chain: B3 chain with V65K
notes: Drosophila SSDP, residues 1-92; also called SSDP V65K; source: E. coli BL21(DE3)-RIL, purified (Ni-NTA, gel filtration); alone or coexpressed with MBP-LCCD
For B5, the “stoichiometry N” value in series [5] is 4.
